Source: article PMC8034659
Numbering of substitutions follows the chain as printed.

How the values were obtained:
Assay in all cases: SPR
[1] = biological target: T1, TrfA E361K (plasmid RK2, UniProt P07676 98-382, G254D;S267L;E361K)
T1 sequence: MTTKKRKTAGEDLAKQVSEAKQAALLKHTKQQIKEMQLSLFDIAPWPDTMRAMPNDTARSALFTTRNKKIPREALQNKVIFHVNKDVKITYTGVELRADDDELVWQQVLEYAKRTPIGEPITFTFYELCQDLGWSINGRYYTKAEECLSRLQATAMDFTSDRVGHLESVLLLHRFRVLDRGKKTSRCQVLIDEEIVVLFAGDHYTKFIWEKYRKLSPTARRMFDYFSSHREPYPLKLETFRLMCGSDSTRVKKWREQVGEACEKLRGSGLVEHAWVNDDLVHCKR

[2] = biological target: T2, TrfA R169E (plasmid RK2, UniProt P07676 98-382, R169E;G254D;S267L)
T2 sequence: T1 sequence with R72E, K264E

[3] = biological target: T3, TrfA R236E (plasmid RK2, UniProt P07676 98-382, R236E;G254D;S267L)
T3 sequence: T1 sequence with R139E, K264E

[4] = biological target: T4, TrfA P151S/E361K (plasmid RK2, UniProt P07676 98-382, P151S;G254D;S267L;E361K)
T4 sequence: T1 sequence with P54S

[5] = biological target: T5, TrfA T105E (plasmid RK2, UniProt P07676 98-382, T105E;G254D;S267L)
T5 sequence: T1 sequence with T8E, K264E

[6] = biological target: T6, TrfA N234E (plasmid RK2, UniProt P07676 98-382, N234E;G254D;S267L)
T6 sequence: T1 sequence with N137E, K264E

[7] = biological target: T7, TrfA P168E (plasmid RK2, UniProt P07676 98-382, P168E;G254D;S267L)
T7 sequence: T1 sequence with P71E, K264E

B1: five RK2 iterons (ItT/ItB) (dsDNA)
DNA 1: CCTGCGGTATTGACACTTGAGGGGCGCGACTACTGACAGATGAGGGGCGCGATCCTTGACACTTGAGGGGCAGAGTGATGACAGATGAGGGGCGCACCTATTGACATTTGAGGGGCTGTCCACAGGCAG
DNA 2: CTGCCTGTGGACAGCCCCTCAAATGTCAATAGGTGCGCCCCTCATCTGTCATCACTCTGCCCCTCAAGTGTCAAGGATCGCGCCCCTCATCTGTCAGTAGTCGCGCCCCTCAAGTGTCAATACCGCAGG
[1]
  binding result: binds
[2]
  binding result: no binding
[3]
  binding result: no binding
[4]
  binding result: binds
[5]
  binding result: binds
[6]
  binding result: no binding
[7]
  binding result: binds
